Measured values reported in US20200399344A1 (SHATTUCK LABS, published 2020).
Several values for one entry are separate records, joined by “and”; a condition that tells them apart may be missing. Identical values can stand only once.

T1: recombinant human CD2 protein (rhCD2-His) (human, UniProt P06729 25-209)
T1 construct: also called recombinant CD2 protein; not shown: His tag
T1 sequence (looked up): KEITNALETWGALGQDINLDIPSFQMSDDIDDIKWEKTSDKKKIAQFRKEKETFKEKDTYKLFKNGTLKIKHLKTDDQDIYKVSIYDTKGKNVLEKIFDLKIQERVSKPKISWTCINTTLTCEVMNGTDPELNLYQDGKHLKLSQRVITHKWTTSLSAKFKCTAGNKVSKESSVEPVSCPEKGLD

T2: recombinant human 2B4 protein (rh2B4-His) (human, UniProt Q9BZW8-2 22-221, limits assumed)
T2 construct: also called recombinant 2B4-His protein; not shown: His tag
T2 sequence (looked up): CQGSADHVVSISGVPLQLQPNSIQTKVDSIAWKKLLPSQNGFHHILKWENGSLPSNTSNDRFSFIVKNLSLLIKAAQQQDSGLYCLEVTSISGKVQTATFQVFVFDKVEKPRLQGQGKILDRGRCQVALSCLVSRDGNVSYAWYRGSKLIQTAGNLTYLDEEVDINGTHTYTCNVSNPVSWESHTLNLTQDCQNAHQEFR

T3: recombinant human 2B4-Fc fusion protein (rh2B4-Fc) (human, UniProt Q9BZW8-2 22-221, limits assumed)
T3 construct: not shown: Fc
T3 sequence (looked up): T2 sequence (looked up)

T4: mCD28, plate-bound (mouse, UniProt P31041 20-149, limits assumed)
T4 sequence (looked up): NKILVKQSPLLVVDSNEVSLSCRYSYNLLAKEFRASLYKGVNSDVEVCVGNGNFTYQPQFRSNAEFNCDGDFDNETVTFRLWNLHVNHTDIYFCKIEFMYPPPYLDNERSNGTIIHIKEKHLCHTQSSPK

B1: human CD48-Fc-NKG2A chimeric protein (Fc fusion)
chain: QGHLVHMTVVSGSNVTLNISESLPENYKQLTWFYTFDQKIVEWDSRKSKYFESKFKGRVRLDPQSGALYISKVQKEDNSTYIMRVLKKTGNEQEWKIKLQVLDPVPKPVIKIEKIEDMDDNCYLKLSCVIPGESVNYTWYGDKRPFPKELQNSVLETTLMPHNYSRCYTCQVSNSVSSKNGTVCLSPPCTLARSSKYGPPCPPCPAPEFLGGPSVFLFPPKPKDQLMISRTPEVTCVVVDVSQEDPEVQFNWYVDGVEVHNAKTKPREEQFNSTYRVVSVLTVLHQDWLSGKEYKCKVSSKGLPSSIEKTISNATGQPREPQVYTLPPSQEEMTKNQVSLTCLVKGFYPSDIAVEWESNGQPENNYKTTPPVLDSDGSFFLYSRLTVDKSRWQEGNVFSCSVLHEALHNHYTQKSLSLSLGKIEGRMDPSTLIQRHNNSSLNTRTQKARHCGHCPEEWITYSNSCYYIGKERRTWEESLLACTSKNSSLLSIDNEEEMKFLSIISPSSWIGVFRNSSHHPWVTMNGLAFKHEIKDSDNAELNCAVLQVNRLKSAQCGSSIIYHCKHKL
notes: also called hCD48-Fc-NKG2A
B2: mouse CD80-Fc-NKG2A chimeric protein (Fc fusion)
chain: VDEQLSKSVKDKVLLPCRYNSPHEDESEDRIYWQKHDKVVLSVIAGKLKVWPEYKNRTLYDNTTYSLIILGLVLSDRGTYSCVVQKKERGTYEVKHLALVKLSIKADFSTPNITESGNPSADTKRITCFASGGFPKPRFSWLENGRELPGINTTISQDPESELYTISSQLDFNTTRNHTIKCLIKYGDAHVSEDFTWEKPPEDPPDSKNVPRDCGCKPCICTVPEVSSVFIFPPKPKDVLTITLTPKVTCVVVDISKDDPEVQFSWFVDDVEVHTAQTQPREEQFNSTFRSVSELPIMHQDWLNGKEFKCRVNSAAFPAPIEKTISKTKGRPKAPQVYTIPPPKEQMAKDKVSLTCMITDFFPEDITVEWQWNGQPAENYKNTQPIMDTDGSYFVYSKLNVQKSNWEAGNTFTCSVLHEGLHNHHTEKSLSHSPGIIEGRMDTPYTEAKAQINSSMTRTHRDINYTLSSAQPCPHCPKEWISYSHNCYFIGMERKSWNDSLVSCISKNCSLLYIDSEEEQDFLQSLSLISWTGILRKGRGQPWVWKEDSIFKPKIAEILHDECNCAMMSASGLTADNCTTLHPYLCKCKFPI
notes: also called mCD80-Fc-NKG2A; mCD80-Fc-NKG2a

What was measured:
[1] = molecular target: T1, recombinant human CD2 protein …; experiment: ELISA: coat rhCD2-His (Acro CD2-H5226), detection Anti-hFc-HRP
Procedure: (§1) Recombinant human CD2 (rhCD2) protein was coated on plates. Increasing amounts of the indicated chimeric proteins or Recombinant human CD58-Fc fusion protein (rhCD58-Fc) were added and detected using an anti-mFc-HRP (for mCD80-Fc-NKG2A) or anti-hFc-HRP (for rest of the proteins).
(§2) CD2 is a transmembrane protein in T cells that binds to its ligand CD58 on APC in humans and on CD48 in rodents. To understand whether the CD48 and CD58 parts of the hCD48-Fc-NKG2A, and hCD58-Fc-NKG2A chimeric protein can bind CD2, ELISA-based assays were performed. Briefly, recombinant human CD2 protein (rhCD2-His) was coated on plates and increasing amounts of the hCD48-Fc-NKG2A, hCD58-Fc-NKG2A, and mCD80-Fc-NKG2A chimeric proteins and recombinant hCD58-Fc protein was added to the plates for capture by the plate-bound recombinant CD2 protein. The […] chimeric protein served as a negative control and recombinant hCD58-Fc protein served as a positive control. The hCD48-Fc-NKG2A and hCD58-Fc-NKG2A, chimeric proteins and recombinant hCD58-Fc protein bound to the recombinant CD2 protein was detected using an anti-human Fc HRP. The mCD80-Fc-NKG2A chimeric protein bound to the recombinant CD2 protein was detected using an anti-mouse Fc HRP.

[2] = molecular target: T5, recombinant human CD28-His (rhCD28-His) (human, UniProt P10747 19-152); experiment: ELISA: coat hCD28-His (negative control coat), detection printed as Anti-mFc-HRP (Jax 115-036-003)
T5 construct: also called Human CD28-His protein; recombinant CD28 protein; not shown: His tag
T5 sequence (P10747 19-152 limits assumed): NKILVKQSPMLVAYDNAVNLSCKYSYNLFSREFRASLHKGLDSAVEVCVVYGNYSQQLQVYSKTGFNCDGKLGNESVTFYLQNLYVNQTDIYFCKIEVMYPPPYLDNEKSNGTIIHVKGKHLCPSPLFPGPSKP
Procedure: (§3) CD48 binds 2B4 (CD244), a member of the signaling lymphocyte-activation molecule (SLAM) family. To understand whether the CD48 part of the hCD48-Fc-NKG2A chimeric protein can bind […], ELISA-based assays were performed. Briefly, recombinant 2B4-His protein was coated on plates. Human CD28-His protein coated on negative control plates. Increasing amounts of the hCD48-Fc-NKG2A chimeric protein was added to the plates for capture by the plate-bound recombinant 2B4-His protein. […]

[3] = molecular target: T2, recombinant human 2B4 protein …; experiment: ELISA: coat rh2B4-His (Sino 10042-H08H), detection Anti-hFc-HRP
Procedure: (§4) Increasing amounts of the indicated chimeric proteins or rhCD48-Fc were added and detected using an anti-mFc-HRP (for mCD80-Fc-NKG2A) or anti-hFc-HRP (for rest of the proteins).
(§5) CD48 is the ligand for 2B4. To understand whether the CD48 parts of the hCD48-Fc-NKG2A chimeric protein can bind 2B4, ELISA-based assays were performed. Briefly, recombinant human 2B4 protein (rh2B4-His) was coated on plates and increasing amounts of the hCD48-Fc-NKG2A and mCD80-Fc-NKG2A chimeric proteins and recombinant human CD48-Fc (rhCD48-Fc) protein was added to the plates for capture by the plate-bound recombinant 2B4 protein. The hCD48-Fc-NKG2A chimeric protein and recombinant human CD48-Fc (rhCD48-Fc) protein bound to the recombinant 2B4 protein was detected using an anti-human Fc HRP. The mCD80-Fc-NKG2A chimeric protein, which was used as a negative control, bound to the recombinant 2B4 protein was detected using an anti-mouse Fc HRP.

[4] = molecular target: T6, recombinant HLA-E-His protein (human, UniProt P13747 22-305, limits assumed); experiment: ELISA: the chimeric protein is the titrated coat (1:3), detection HLA-E-His (Novus NBP2-47435PEP), HRP Anti-6x-His-HRP
T6 construct: also called recombinant HLA-E (HLA-E-His); not shown: His tag
T6 sequence (P13747 22-305 limits assumed): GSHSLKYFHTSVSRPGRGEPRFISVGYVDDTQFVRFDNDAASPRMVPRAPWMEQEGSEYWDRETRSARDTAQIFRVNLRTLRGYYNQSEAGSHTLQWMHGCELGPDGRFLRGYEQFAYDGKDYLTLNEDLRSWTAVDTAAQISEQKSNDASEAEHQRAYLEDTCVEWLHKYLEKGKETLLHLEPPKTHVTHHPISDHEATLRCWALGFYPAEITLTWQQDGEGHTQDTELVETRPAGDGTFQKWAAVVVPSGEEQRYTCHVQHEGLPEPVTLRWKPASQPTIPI
Procedure: In a complementary experiment, increasing amounts of the hCD48-Fc-NKG2A, hCD58-Fc-NKG2A, and hCD80-Fc-NKG2A chimeric proteins or a negative control protein was coated on plates. Recombinant HLA-E-His protein was added to the plates for capture by the plate-bound chimeric proteins or the negative control protein. The captured HLA-E-His protein was detected using an anti-6×-His-HRP antibody.

[5] = molecular target: T7, anti-human IgG antibody (plate-bound); experiment: ELISA (single sided Fc): coat Anti-Human IgG (H+L) Jax# 109-005-088, detection HRP Goat anti-human FCgamma
T7 construct: also called anti-human Fc antibody
Procedure: In another set of experiments, an anti-human IgG antibody was coated on plates and increasing amounts of the hCD48-Fc-NKG2A, hCD58-Fc-NKG2A, and hCD80-Fc-NKG2A chimeric proteins, and a human IgG antibody were added to the plates for capture by the plate-bound […]. The human IgG antibody was used as a positive control and to generate a standard curve. The binding to the anti-human IgG antibody was detected using an anti-human Fcgamma HRP.

[6] = molecular target: T2, recombinant human 2B4 protein …; experiment: ELISA: coat h2B4-His (Sino #10042-H08H), detection printed as Anti-mFc-HRP (Jax 115-036-003)
Procedure: as §3

[7] = molecular target: T3, recombinant human 2B4-Fc fusion protein …; experiment: dual ELISA; coat rh2B4-Fc (for SL-048), CD48-Fc-NKG2a titrated, detection HLA-E-His, Anti 6x-His-HRP; the signal needs both bindings
Procedure: (i) recombinant human 2B4-Fc fusion protein (rh2B4-Fc) was coated on plates. Increasing amounts of the hCD48-Fc-NKG2A or hCD86-Fc-NKG2A chimeric proteins were added and detected using HLA-E-His. The hCD86-Fc-NKG2A chimeric protein was used as a negative control (Negative control #1). […] (ii) recombinant human CD2-Fc fusion protein (rhCD2-Fc) was coated on plates. Increasing amounts of the hCD58-Fc-NKG2A or hCD86-Fc-NKG2A chimeric proteins were added and detected using HLA-E-His. The hCD86-Fc-NKG2A chimeric protein was used as a negative control (Negative control #2).
To understand whether the hCD48-Fc-NKG2A chimeric protein can bind simultaneously to both 2B4 and HLA-E, the following ELISA experiment was carried out. Briefly, and recombinant 2B4 (rh2B4-Fc) protein was coated on plates. Increasing amounts of the hCD48-Fc-NKG2A chimeric protein was added to the plates for capture by the recombinant human 2B4-Fc (rh2B4-Fc) protein. Further, recombinant HLA-E (HLA-E-His) protein was added to the plate for capture by hCD48-Fc-NKG2A chimeric proteins. The binding of the HLA-E-His protein was detected using an anti-His 6× HRP antibody.

[8] = molecular target: T8, anti-mFc IgG antibody (plate-bound); experiment: Fc ELISA: coat Anti-mFc (Jax), detect Anti-mFc-HRP (Jax)
T8 construct: also called anti-Fc antibody
Description: A mouse whole IgG was used to generate a standard curve.

[9] = molecular target: T1, recombinant human CD2 protein …; experiment: ELISA: coat rhCD2-His (Acro CD2-H5226), detection Anti-mFc-HRP for mCD80
Procedure: as §1, §2

[10] = molecular target: T9, mTGFβ1, recombinant, plate-bound (mouse, UniProt P04202 279-390, limits assumed); experiment: ELISA: coat mTGFB1 (R+D 7666-MB), detection Anti-mFc-HRP
T9 construct: also called recombinant TGFβ1 protein
T9 sequence (P04202 279-390 limits assumed): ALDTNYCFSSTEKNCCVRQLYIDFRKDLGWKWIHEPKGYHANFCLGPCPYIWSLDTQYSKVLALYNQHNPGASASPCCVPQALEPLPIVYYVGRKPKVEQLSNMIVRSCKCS
Procedure: TGFβ1 is a ligand of TGFBR2. To understand whether the TGFBR2 part of the TGFBR2-Fc-NKG2A chimeric protein can bind TGFβ1, ELISA-based assays were performed. Briefly, recombinant TGFβ1 protein was coated on plates and increasing amounts of the TGFBR2-Fc-NKG2A chimeric protein was added to the plates for capture by the plate-bound recombinant TGFβ1 protein. The chimeric protein bound to the recombinant TGFβ1 protein was detected using an anti-mFc HRP.

mCTLA-4, plate-bound = mCTLA-4, plate-bound (mouse, UniProt P09793 36-162, limits assumed); experiment: ELISA (single-sided): coat mCTLA-4-Fc (Acro), detect Anti-mFc-HRP (Jax)
[11] = molecular target: T2, recombinant human 2B4 protein …; experiment: ELISA: coat rh2B4-His (Sino 10042-H08H), detection Anti-mFc-HRP for mCD80
Procedure: as §4, §5

mCD28, plate-bound = molecular target: T4, mCD28, plate-bound; experiment: ELISA (single-sided): coat mCD28-Fc (Acro), detect Anti-mFc-HRP (Jax)
[12] = molecular target: T10, HLA class I histocompatibility antigen, alpha chain E (HLA-E), plate-bound recombinant protein (human, UniProt P13747 22-305, limits assumed); experiment: ELISA (single-sided): coat hHLA-E (NOVUS), detect Anti-mFc-HRP (Jax)
T10 construct: no tag named there; also called recombinant HLA-E protein
T10 sequence (P13747 22-305 limits assumed): as the sequence (P13747 22-305 limits assumed) above

Row | Binder | binding result [1] | binding result [2] | EC50 (read off the curve) [3] [µg/mL] | EC50 (read off the curve) [4] [µg/mL] | EC50 (read off the curve) [5] [µg/mL] | EC50 (read off the curve) [6] [µg/mL] | EC50 (read off the curve) [7] [µg/mL] | EC50 [8] | binding result [9] | binding result [10] | EC50 (mCTLA-4, plate-bound) | binding result [11] | EC50 (mCD28, plate-bound) | EC50 [12]
1 | B1 | binds | no binding (tested: log[Agonist] about 2.7, ug/ml) | ~2 | ~2 | ~0.7 | ~2 | ~50 | – | – | – | – | – | – | –
2 | B2 | – | – | – | – | – | – | – | 2.02 nM and 1.36 nM | no binding (tested: log[Agonist] about 2.7, ug/ml) | no binding (tested: log[Agonist] about 2.7, ug/ml) | 0.958 nM and 0.705 nM | no binding (tested: log[Agonist] about 2.7, ug/ml) | 30.8 nM and 22.6 nM | 247 nM and 140 nM
